This experiment deals with T1, protein kinase C-iota (PKC-ι) (human, UniProt P41743 2-596).
T1 construct: Endogenous protein immunoprecipitated or blotted from cell lysates; also called PKC-i
T1 sequence (looked up): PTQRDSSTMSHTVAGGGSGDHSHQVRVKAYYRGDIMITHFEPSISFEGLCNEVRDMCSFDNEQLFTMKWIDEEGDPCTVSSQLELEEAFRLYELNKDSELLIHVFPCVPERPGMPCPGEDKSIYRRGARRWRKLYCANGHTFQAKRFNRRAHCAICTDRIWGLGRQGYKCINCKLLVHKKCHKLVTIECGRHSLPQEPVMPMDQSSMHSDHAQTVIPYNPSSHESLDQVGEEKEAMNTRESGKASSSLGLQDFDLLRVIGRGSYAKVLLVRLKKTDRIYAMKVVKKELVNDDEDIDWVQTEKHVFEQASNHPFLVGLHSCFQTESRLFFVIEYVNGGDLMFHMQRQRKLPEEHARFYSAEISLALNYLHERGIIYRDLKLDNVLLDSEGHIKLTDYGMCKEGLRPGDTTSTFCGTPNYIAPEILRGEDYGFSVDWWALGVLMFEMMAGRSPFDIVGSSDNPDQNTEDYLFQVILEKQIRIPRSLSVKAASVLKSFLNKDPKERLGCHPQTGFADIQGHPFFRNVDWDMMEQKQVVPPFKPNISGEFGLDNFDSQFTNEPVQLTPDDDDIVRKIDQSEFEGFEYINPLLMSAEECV
The experiment is described as follows: Immunoprecipitation of Bad (200 µg protein) from RWPE-1 and DU-145 cells treated with control siRNA or PKC-ι siRNA, then immunoblot. How it is done: PKC-ι is overexpressed in non-small cell lung cancer cells (NSCLC) and it has been reported to phosphorylate Bad at multiple sites for cell survival. To test whether PKC-ι can directly phosphorylate endogenous Bad, Bad protein (200 μg) was immunoprecipitated from control siRNA and PKC-ι siRNA treated (incubation time 24 h) RWPE-1 and DU-145 cells. Normal rabbit IgG agarose conjugate (5 μg) was used as a negative control.
A similar experiment was performed with DU-145 (FIG. 8A, third column). First, we investigated if PKC-ι associates with Bad. […] However, we observed an increase in phosphorylation of Bad ser-112, no significant changes in p-Bad (ser-136) and p-Bad (ser-155).
Background: A western blot detects proteins with antibodies after separation by electrophoresis.

These results are taken from patent US20090130195A1 (UNIVERSITY OF SOUTH FLORIDA, published 2009).

B1: Bad (other, UniProt Q92934 1-168, looked up)
chain: MFQIPEFEPSEQEDSSSAERGLGPSPAGDGPSGSGKHHRQAPGLLWDASHQQEQPTSSSHHGGAGAVEIRSRHSSYPAGTEDDEGMGEEPSPFRGRSRSAPPNLWAAQRYGRELRRMSDEFVDSFKKGLPRPKSAGTATQMRQSSSWTRVFQSWWDRNLGRGSSAPSQ
notes: Endogenous protein from human prostate cell lines; Its phosphorylation (ser-112, ser-136, ser-155) varies with cell line and treatment; also called Bad protein
Consider B1, for which the binding result is recorded as “no binding”.
